Experimental data published in patent US20090118184A1 (UNIVERSITY OF ROCHESTER, published 2009).

Tests used:
Assay in all cases: cell-based or functional assay
[1] = biological target: T1, factor VIIIa A1/A3C1C2 dimer, Glu1984Ala (human, UniProt P00451 20-391; P00451 1709-2351)
T1 sequence 1: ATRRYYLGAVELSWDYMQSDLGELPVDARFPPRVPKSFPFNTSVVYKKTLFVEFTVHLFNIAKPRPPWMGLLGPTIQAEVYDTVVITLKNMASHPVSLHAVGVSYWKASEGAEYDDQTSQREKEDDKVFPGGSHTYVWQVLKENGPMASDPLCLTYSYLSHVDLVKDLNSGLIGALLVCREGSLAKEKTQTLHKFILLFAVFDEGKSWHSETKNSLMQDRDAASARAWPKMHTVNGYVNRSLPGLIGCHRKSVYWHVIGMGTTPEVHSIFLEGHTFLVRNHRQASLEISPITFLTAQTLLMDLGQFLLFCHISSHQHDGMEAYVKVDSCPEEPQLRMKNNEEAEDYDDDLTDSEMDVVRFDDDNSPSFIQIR
T1 sequence 2: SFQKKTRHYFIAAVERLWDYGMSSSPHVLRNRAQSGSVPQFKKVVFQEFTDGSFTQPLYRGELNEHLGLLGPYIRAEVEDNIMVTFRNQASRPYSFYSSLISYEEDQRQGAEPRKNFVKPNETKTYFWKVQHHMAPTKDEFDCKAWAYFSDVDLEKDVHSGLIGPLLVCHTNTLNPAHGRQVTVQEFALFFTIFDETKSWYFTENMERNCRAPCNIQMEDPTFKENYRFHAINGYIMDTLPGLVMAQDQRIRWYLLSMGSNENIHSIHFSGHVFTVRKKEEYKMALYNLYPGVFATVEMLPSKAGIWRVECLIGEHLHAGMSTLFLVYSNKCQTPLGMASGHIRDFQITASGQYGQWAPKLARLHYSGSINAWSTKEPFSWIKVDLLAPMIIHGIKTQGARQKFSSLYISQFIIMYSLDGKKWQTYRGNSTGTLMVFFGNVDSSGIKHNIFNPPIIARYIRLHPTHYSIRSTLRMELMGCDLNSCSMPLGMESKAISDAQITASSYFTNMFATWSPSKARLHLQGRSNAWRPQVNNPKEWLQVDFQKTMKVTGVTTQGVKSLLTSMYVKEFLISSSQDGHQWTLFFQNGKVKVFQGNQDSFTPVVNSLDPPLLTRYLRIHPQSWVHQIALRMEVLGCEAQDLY

[2] = biological target: T2, factor VIIIa A1/A3C1C2 dimer, Glu1984Val (human, UniProt P00451 20-391; P00451 1709-2351)
T2 sequence 1: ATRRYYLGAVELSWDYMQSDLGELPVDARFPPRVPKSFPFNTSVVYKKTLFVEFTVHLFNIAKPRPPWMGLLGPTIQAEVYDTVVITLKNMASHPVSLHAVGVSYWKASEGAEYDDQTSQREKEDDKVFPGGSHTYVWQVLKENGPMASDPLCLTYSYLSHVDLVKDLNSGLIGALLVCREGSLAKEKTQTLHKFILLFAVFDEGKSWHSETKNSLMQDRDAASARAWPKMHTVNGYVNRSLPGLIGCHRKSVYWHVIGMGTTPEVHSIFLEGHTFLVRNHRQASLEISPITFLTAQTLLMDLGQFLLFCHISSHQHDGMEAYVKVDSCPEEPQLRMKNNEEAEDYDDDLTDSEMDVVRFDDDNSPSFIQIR
T2 sequence 2: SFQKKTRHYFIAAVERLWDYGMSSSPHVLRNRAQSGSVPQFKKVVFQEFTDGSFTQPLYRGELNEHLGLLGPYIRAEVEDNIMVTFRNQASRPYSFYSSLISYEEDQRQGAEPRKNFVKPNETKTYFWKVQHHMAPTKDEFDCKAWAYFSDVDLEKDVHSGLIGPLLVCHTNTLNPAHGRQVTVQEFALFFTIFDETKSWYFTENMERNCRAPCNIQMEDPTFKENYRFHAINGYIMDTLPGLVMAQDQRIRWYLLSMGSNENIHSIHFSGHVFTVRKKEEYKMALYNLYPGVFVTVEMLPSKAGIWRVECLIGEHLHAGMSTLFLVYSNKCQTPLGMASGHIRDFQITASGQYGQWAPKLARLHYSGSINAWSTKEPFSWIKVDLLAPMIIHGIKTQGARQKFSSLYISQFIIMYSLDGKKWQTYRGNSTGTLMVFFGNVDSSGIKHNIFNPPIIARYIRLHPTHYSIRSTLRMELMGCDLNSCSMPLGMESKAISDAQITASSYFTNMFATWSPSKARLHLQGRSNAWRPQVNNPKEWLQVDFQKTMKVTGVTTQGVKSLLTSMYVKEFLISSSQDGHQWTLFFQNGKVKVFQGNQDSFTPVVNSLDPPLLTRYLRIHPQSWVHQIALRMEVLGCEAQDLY

[3] = biological target: T3, factor VIIIa A1/A3C1C2 dimer, wild type (human, UniProt P00451 20-391; P00451 1709-2351)
T3 sequence 1: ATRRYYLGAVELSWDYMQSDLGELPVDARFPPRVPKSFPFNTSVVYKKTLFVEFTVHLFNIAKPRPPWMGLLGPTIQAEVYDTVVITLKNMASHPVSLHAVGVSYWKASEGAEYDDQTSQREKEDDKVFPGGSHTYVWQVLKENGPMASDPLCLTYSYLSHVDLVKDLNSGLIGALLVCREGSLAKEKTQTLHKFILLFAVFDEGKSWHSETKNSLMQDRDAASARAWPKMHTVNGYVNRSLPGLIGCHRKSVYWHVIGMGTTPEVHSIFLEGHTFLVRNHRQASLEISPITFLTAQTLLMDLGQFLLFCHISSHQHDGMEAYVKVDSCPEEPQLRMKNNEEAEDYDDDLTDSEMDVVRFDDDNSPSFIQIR
T3 sequence 2: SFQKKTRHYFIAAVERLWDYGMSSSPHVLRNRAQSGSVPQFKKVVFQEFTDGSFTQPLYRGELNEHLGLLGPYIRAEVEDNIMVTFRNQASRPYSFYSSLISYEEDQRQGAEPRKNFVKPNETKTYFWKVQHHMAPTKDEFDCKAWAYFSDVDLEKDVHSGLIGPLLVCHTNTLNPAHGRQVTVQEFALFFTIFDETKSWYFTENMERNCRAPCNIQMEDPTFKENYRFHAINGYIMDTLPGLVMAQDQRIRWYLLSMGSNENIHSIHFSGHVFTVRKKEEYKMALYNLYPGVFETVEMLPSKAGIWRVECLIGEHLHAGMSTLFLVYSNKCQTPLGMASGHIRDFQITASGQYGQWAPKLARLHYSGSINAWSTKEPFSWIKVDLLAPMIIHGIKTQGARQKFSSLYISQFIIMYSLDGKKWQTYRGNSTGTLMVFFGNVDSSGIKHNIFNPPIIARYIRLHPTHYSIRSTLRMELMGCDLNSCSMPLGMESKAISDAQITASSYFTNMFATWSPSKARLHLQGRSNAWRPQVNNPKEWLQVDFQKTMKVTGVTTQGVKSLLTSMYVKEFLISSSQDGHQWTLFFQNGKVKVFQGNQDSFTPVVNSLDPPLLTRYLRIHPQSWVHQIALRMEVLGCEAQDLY

[4] = biological target: T3, factor VIIIa A1/A3C1C2 dimer, wild type; remark: listed apart in the source
[5] = biological target: T1, factor VIIIa A1/A3C1C2 dimer, Glu1984Ala; remark: listed apart in the source
[6] = biological target: T2, factor VIIIa A1/A3C1C2 dimer, Glu1984Val; remark: listed apart in the source
[7] = biological target: T4, factor VIIIa A1/A3C1C2 dimer, Glu113Ala (human, UniProt P00451 20-391; P00451 1709-2351)
T4 chain 1: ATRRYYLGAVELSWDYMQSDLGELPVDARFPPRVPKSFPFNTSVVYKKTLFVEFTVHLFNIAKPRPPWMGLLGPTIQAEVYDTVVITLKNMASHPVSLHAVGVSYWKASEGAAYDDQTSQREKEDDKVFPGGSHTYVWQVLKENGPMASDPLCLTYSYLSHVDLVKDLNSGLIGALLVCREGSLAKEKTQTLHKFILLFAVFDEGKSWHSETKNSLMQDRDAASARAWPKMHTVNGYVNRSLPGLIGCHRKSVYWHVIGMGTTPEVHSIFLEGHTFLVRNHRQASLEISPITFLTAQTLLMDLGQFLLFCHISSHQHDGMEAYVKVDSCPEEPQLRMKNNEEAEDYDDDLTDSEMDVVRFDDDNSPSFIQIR
T4 chain 2: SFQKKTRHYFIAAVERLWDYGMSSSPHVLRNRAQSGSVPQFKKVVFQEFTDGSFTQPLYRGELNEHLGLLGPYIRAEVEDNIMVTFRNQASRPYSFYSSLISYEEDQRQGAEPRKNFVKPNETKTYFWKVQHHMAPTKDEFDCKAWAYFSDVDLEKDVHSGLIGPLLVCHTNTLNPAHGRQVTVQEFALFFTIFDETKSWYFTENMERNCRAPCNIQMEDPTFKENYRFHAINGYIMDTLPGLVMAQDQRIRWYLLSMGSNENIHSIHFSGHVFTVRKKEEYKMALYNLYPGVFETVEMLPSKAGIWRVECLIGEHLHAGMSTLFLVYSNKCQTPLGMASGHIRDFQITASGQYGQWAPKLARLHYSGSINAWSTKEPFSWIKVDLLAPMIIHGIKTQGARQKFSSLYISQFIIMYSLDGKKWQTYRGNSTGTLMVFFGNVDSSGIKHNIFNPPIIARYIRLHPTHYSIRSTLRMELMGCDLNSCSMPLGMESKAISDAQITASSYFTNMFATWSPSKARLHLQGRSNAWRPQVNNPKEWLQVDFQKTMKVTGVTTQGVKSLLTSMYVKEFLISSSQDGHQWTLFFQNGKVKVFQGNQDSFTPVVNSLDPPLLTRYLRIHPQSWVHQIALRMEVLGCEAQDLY

factor VIIIa decay rate relative to the better single mutation of the pairing [1]: ~2.2 fold
factor VIIIa decay rate relative to the better single mutation of the pairing [2]: ~2.7 fold
Factor VIIIa Decay relative to the WT value, Factor IXa absent [3]: 0.62 relative to WT
Factor VIIIa Decay relative to the WT value, Factor IXa present [3]: 0.51 relative to WT
Factor VIIIa Decay, Factor IXa absent [3]: 0.052 min⁻¹
Factor VIIIa Decay, Factor IXa present [3]: 0.0078 min⁻¹
Decay rate relative to wild type, Factor VIIIa (1.5 nM, factor IXa absent) [4]: 0.6 relative to wild type
Decay rate, Factor VIIIa (1.5 nM factor VIIIa, factor IXa absent) [4]: 0.0834 min⁻¹
Decay rate relative to wild type, Factor VIIIa (1.5 nM, factor IXa absent) [5]: 0.93 relative to wild type
Decay rate, Factor VIIIa (1.5 nM factor VIIIa, factor IXa absent) [5]: 0.13 min⁻¹
Decay rate relative to wild type, Factor VIIIa (1.5 nM, factor IXa absent) [6]: 0.9 relative to wild type
Decay rate, Factor VIIIa (1.5 nM factor VIIIa, factor IXa absent) [6]: 0.127 min⁻¹
Decay rate relative to wild type, Factor VIIIa (1.5 nM, factor IXa absent) [7]: 0.54 relative to wild type
Decay rate, Factor VIIIa (1.5 nM factor VIIIa, factor IXa absent) [7]: 0.0754 min⁻¹
B1: factor VIIIa A2 subunit, Glu665Ala (other)
chain: SVAKKHPKTWVHYIAAEEEDWDYAPLVLAPDDRSYKSQYLNNGPQRIGRKYKKVRFMAYTDETFKTREAIQHESGILGPLLYGEVGDTLLIIFKNQASRPYNIYPHGITDVRPLYSRRLPKGVKHLKDFPILPGEIFKYKWTVTVEDGPTKSDPRCLTRYYSSFVNMERDLASGLIGPLLICYKESVDQRGNQIMSDKRNVILFSVFDENRSWYLTENIQRFLPNPAGVQLEDPEFQASNIMHSINGYVFDSLQLSVCLHEVAYWYILSIGAQTDFLSVFFSGYTFKHKMVYADTLTLFPFSGETVFMSMENPGLWILGCHNSDFRNRGMTALLKVSSCDKNTGDYYEDSYEDISAYLLSKNNAIEPR
